Experimental data published in US20120165265A1, “Calcium Signaling Modulators Involving STIM and ORAI Proteins” (priority 2009, published 2012).

How the values were obtained:
Orai1 [1] = target: T1, Orai1 (Homo sapiens, UniProt Q96D31); experiment: Co-immunoprecipitation with Orai1 in HEK 293T cells; format: binding; parameters: expressed in transfected cells; host or cells: HEK 293; conditions: 150 mM salt, 1% Triton X-100
Experimental: Immunoprecipitation and Immunoblot Analysis. Transfected HEK 293T cells (12-24 h) were washed with PBS and lysed in 50 mM Tris-HCl pH 7.5, 150 mM NaCl, 1% Triton X-100, and protease inhibitors. Lysates were spun at 12,000 rpm for 10 min, and the supernatant was incubated with anti-Flag M2 agarose beads (Sigma), or anti-myc or -HA antibody followed by IgG agarose beads (Pierce). Lysates and immunoprecipitates were subjected to SDS-PAGE, probed with HRP-conjugated secondary antibody and detected by enhanced chemiluminescence (Pierce).
CAD Associates with Orai1 in vivo and in vitro. Because cytosolic CAD is a potent activator of Orai1 channels and is not associated with the ER, we hypothesized that CAD binds to Orai1. To test this idea, we first expressed YFP-CAD with or without myc-Orai1 in HEK 293 cells and examined its intracellular localization. […] To provide additional evidence that CAD and Orai1 are part of the same protein complex we expressed Flag-tagged CAD and GFP-tagged Orai1 in HEK 293T cells and immunoprecipitated CAD with anti-Flag antibodies. GFP-myc-Orai1 was detected in the immunoprecipitates from cells co-expressing CAD and Orai1 but not from cells expressing CAD or Orai1 alone (FIG. 3B).
Thus, CAD and Orai1 form a protein complex in mammalian cells.

CRAC channels = target: T2, CRAC channels (Homo sapiens, UniProt Q96D31); experiment: [Ca2+]i imaging in HEK 293 cells expressing STIM1 fragment and Orai1; format: cell-based
T2 construct: expressed in transfected cells; host or cells: HEK 293
Experimental: Ca^2+ Imaging. For FIG. 2, cells were loaded at 37° C. in DMEM with 1 μM fura-2/AM for 30 min. Ratiometric Ca2+ imaging was performed at 340 and 380 nm in 2 mM Ca2+ Ringer's solution with a Nikon Eclipse 2000-U inverted microscope equipped with a fluorescent arc lamp, excitation filter wheel, and a Hamamatsu Orca CCD camera. Images were collected using Openlab (Improvision) and analyzed using Igor Pro.
To determine if CAD activates store operated Ca^2+ influx in cells, we measured [Ca^2+]i in HEK 293 cells expressing CAD and Orai1.

endogenous CRAC channels = experiment: NFAT-luciferase assay in HEK 293T (NFAT-Luc) cells; format: cell-based; conditions: HEK 293T NFAT-luc cells transfected with STIM1 construct; PMA (1 μM) alone
Experimental: NFAT-luciferase Assays. HEK 293T cells were co-transfected with the indicated constructs and an NFAT reporter gene (firefly luciferase gene C-terminal to 4×-NFAT site from the IL-2 gene). Cotransfection with the Renilla luciferase (pRLTK) gene driven by the TK promoter was used to control for cell number and transfection efficiency. After 12-18 h, cells were treated with a control DMSO solution (mock), PMA (1 μM), or PMA plus TG (1 μM) for 8 h. Assays were performed using the Dual Luciferase Reporter assay system (Promega). For each condition, luciferase activity was measured with 4 samples taken from duplicate wells using a 96-well automated luminometer (Turner Biosystems). Results are represented as the ratio of firefly to Renilla luciferase activity.
Identifying a Minimal Cytosolic Region of STIM1 that Opens the CRAC Channel. To identify the CRAC-activating domain of STIM1, we first tested a series of soluble cytosolic STIM1 fragments for their ability to activate an NFAT-dependent luciferase reporter gene (NFAT-luc). A series of constructs were generated by progressive truncation of the full-length cytosolic region of STIM1 (FIG. 2A; STIM1234-685; CT-STIM1) and were transiently expressed in a HEK 293T cell line containing NFAT-luc. […]

EE-Orai1-His8 = target: T3, EE-Orai1-His8 (Homo sapiens, UniProt Q96D31); experiment: GST pull-down assay with purified proteins; format: binding; conditions: in vitro
T3 construct: made in house; host or cells: Hi5 insect cells (baculovirus, pVL1393)
Experimental: GST Pull-down Assays. For GST pull-down assays, either GST-CAD (0.16 μM) or GST (0.15 μM) was incubated with EE-Orai1-His8 (0.1 μM) for 1 h in buffer containing (in mM): 20 Tris-HCl (pH 8.0), 150 NaCl, 20 imidazole, and 1 DTT with protease inhibitors. After addition of glutathione sepharose the beads were centrifuged, washed with the above buffer, and the precipitated proteins were eluted with boiling SDS and analyzed by SDS-PAGE and Western blotting.
CAD Binds Directly to Orai1. To test for direct binding between the CAD and Orai1 we generated a GST-tagged CAD peptide in E. coli and an Orai1 protein containing C-terminal octa-histidine and N-terminal EEYMPME (“EE”) tags in insect Hi5 cells. We incubated purified GST-CAD or GST alone with purified EE-Orai1-His8 and used glutathione beads to precipitate the complexes.

Orai1 [2] = target: T1, Orai1; experiment: Store-operated Ca2+ entry by STIM1 variants, single cell Ca2+ imaging; format: cell-based; parameters: expressed in transfected cells; host or cells: HEK 293; conditions: coexpressed with eGFP-Orai1, TG
Experimental: For FIG. 7, cells were loaded as above with 2 μM fura-2/AM for 25 min. Ratiometric Ca2+ imaging was performed with 350 and 380 nm excitation in 2 mM Ca2+ Ringer's solution on an Axiovert 35 inverted microscope using a VideoProbe imaging system as described (Bautista et al., 2002). mCherry-positive cells were identified using a 540±12 nm excitation and a 580LP emission filter (Chroma).
(§1) The Role of CAD in Orai1 Binding and Activation by STIM1. A key question is whether CAD is responsible for the clustering and activation of CRAC channels by full-length STIM1 following store depletion. To address this, we measured the ability of mCherry-tagged STIM1 variants containing CAD mutations to co-cluster with eGFP-Orai1 and activate Ca^2+ entry in response to TG (FIG. 7). STIM1-Orai1 colocalization was quantified as the fraction of total STIM1 and Orai1 fluorescence that was recruited to regions of high fluorescence covariance (FIG. 13), while Ca^2+ influx was measured with single cell Ca^2+ imaging. For each set of experiments we measured mCherry and GFP fluorescence to confirm that differences in the activity of the various STIM1 constructs were not due to differences in expression level (FIG. 14).

Orai1 [3] = target: T1, Orai1; experiment: Puncta formation of STIM1 variants by confocal microscopy in HEK 293 cells; format: cell-based; parameters: expressed in transfected cells; host or cells: HEK 293; conditions: coexpressed with eGFP-Orai1, TG
Experimental: (§2) Confocal Microscopy. 6 h after transfection, HEK 293 cells were plated onto sterilized coverslips coated with poly-D-lysine and maintained in complete DMEM for an additional 12-18 h before imaging in Ringer's solution containing (in mM): 155 NaCl, 4.5 KCl, 2 CaCl2, 1 MgCl2, 10 D-glucose, and 5 Na-Hepes, pH 7.4. To deplete stores, cells were treated with 1 μM TG in Ca2+-free Ringer's (prepared by substituting 2 mM MgCl2 and 1 mM EGTA for CaCl2) for 10 min. eGFP and mCherry were excited simultaneously at 488 and 594 nm, respectively, on a Leica SP2 AOBS inverted confocal microscope equipped with a PL APO 100×/NA 1.4 oil immersion objective. Fluorescence emissions were collected at 615-840 nm (mCherry) and 510-570 nm (eGFP). All experiments were performed at 22-25° C.
Quantitation of STIM1 and Orai1 Recruitment into Puncta. Colocalization of eGFP-Orai1 and mCh-STIM1 variants was analyzed from background-corrected confocal image pairs acquired before and after store depletion. Puncta have two defining characteristics: (1) because they are sites of accumulation, STIM1 and Orai1 fluorescence intensities in puncta are greater than the respective mean intensities measured across the entire cell, and (2) because STIM1 and Orai1 co-localize in puncta, their fluorescence covariance is high. For each STIM1/Orai1 image pair, we computed the covariance of each pixel as (Si−s) (Oi−o), where Si and Oi are the STIM1 and Orai1 fluorescence of pixel i, and s and o are the mean STIM1 and Orai1 fluorescence of the entire cell. A threshold criterion for puncta was set using the pre-depletion image pair. The mean and s.d. of the covariance values were calculated from pixels for which both Si>s and Oi>o, and a covariance threshold was set equal to the mean+2×s.d. of this pre-depletion condition. Binary masks were applied to the pre- and post-depletion image pairs to isolate pixels for which Si>s and Oi>o and whose covariance exceeds the pre-depletion threshold. […] Integrated STIM1 or Orai1 puncta intensity was calculated from the masked images and expressed as a fraction of the total fluorescence intensity in the unmasked image. […]
as §1, with “A key question is whether CAD is responsible for the clustering and activation of CRAC channels by full-length STIM1 following store depletion.” left out

Orai1 [4] = target: T1, Orai1; experiment: Whole-cell patch clamp recording of ICRAC in transfected HEK 293 cells; format: cell-based; parameters: expressed in transfected cells; host or cells: HEK 293
Experimental: Electrophysiology. HEK 293 cells were transfected 8-24 h prior to electrophysiology experiments with STIM1- and Orai1-derived constructs in a 1:1 mass ratio using Lipofectamine 2000. […] ICRAC in cells cultured without LaCl3 was similar to that in cells cultured with LaCl3, but most cells without LaCl3 died soon after break-in.
Currents were recorded using standard whole-cell patch clamp techniques (Prakriya and Lewis, 2001). Pipettes of resistance 2-5 MΩ were filled with an internal solution containing (in mM) 150 Cs aspartate, 8 MgCl2, 10 EGTA, and 10 HEPES (pH 7.2 with CsOH). Currents were sampled at 5 kHz and filtered at 2 kHz, and all voltages were corrected for the junction potential of the pipette solution relative to Ringer's in the bath (−13 mV).
Patch-clamp Experiments. Pipette-membrane seals were formed in 2 mM Ca^2+ Ringer's solution. After break-in to the whole-cell configuration, voltage stimuli consisting of a 100-ms step to −100 mV followed by a 100-ms ramp from −100 to +100 mV were delivered every 5 s from the holding potential of +30 mV. After the currents reached a steady level (˜300 s for wild-type STIM1), the external solution was changed via a multibarrel local perfusion pipette to a high-Ca^2+ Ringer's containing (in mM) 130 NaCl, 4.5 KCl, 20 CaCl2, 1 MgCl2, 10 D-glucose, and 5 HEPES (pH 7.4 with NaOH). All data were leak-corrected using the current elicited in 20 mM Ca^2+ Ringer's+10 μM LaCl3 at the end of the each experiment. LaCl3 and 2-APB were added directly to parent solutions on the day of the experiment from 10 mM and 100 mM stocks in H2O and DMSO, respectively.
As a definitive test for CRAC channel activation, we conducted whole-cell patch clamp recordings from HEK 293 cells transiently transfected with myc-Orai1 and either YFP-STIM1 or YFP-CAD. In cells expressing full length YFP-STIM1, ICRAC appeared over several minutes following break-in, consistent with the typical slow activation seen in response to passive store depletion (FIG. 2D). […] In contrast, inward current was present from the moment of break-in in cells expressing YFP-CAD (FIG. 2E). This current was identified as ICRAC based on its dependence on extracellular Ca^2+, inward rectification, sequential enhancement and inhibition by 2-APB, and inhibition by La^3+ (FIG. 2E and FIG. 10 C, D). ICRAC was not observed at break-in in HEK 293 cells transfected with YFP or YFP-CAD in the absence of Orai1 (FIG. 2F), consistent with the low level of endogenous STIM1 and Orai1 in these cells. […] Inactivation was restored by addition of STIM1 residues carboxy-terminal to CAD.

Orai1 [5] = experiment: Puncta formation of STIM1 variants by confocal microscopy in HEK 293 cells; format: cell-based; conditions: expressed alone in HEK 293 cells
Experimental: as §2
Quantitation of STIM1 and Orai1 Recruitment into Puncta. Colocalization of eGFP-Orai1 and mCh-STIM1 variants was analyzed from background-corrected confocal image pairs acquired before and after store depletion. Puncta have two defining characteristics: (1) because they are sites of accumulation, STIM1 and Orai1 fluorescence intensities in puncta are greater than the respective mean intensities measured across the entire cell, and (2) because STIM1 and Orai1 co-localize in puncta, their fluorescence covariance is high. […]

Orai1 [6] = target: T1, Orai1; experiment: Intracellular localization of YFP-CAD in HEK 293 cells; format: cell-based; parameters: expressed in transfected cells; host or cells: HEK 293; conditions: with myc-Orai1
Experimental: as §2
CAD Associates with Orai1 in vivo and in vitro. Because cytosolic CAD is a potent activator of Orai1 channels and is not associated with the ER, we hypothesized that CAD binds to Orai1. To test this idea, we first expressed YFP-CAD with or without myc-Orai1 in HEK 293 cells and examined its intracellular localization. […] GFP-myc-Orai1 was detected in the immunoprecipitates from cells co-expressing CAD and Orai1 but not from cells expressing CAD or Orai1 alone (FIG. 3B).

T1 sequence (Q96D31 whole entry): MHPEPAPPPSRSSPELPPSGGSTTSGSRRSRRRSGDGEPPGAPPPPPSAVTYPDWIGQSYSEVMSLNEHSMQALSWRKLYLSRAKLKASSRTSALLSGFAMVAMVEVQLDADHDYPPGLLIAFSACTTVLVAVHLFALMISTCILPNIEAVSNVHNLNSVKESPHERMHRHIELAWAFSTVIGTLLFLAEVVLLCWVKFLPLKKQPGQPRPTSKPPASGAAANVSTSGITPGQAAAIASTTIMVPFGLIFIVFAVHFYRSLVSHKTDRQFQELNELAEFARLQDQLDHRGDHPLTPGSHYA
T2 sequence (Q96D31 whole entry, the tested form may be a part): as the sequence (Q96D31 whole entry) above
T3 sequence (Q96D31 whole entry): as above

Substance: CT-STIM1: full-length cytosolic region of STIM1 (aa 234-685) [reference compound]
- co-immunoprecipitation with Orai1 (Orai1 [1]): unable to detect any interaction
- resting [Ca2+]i (CRAC channels; HEK 293T cells coexpressing construct and Orai1): did so
- [Ca2+]i / CRAC channel activation (CRAC channels; HEK 293 cells coexpressing construct and Orai1, no store depletion): did not elevate resting [Ca^2+]i
- activation of NFAT-dependent luciferase reporter gene (NFAT-luc) (endogenous CRAC channels): did not activate

Substance: GST-CAD: GST-tagged CAD peptide generated in E. coli
- co-precipitation of purified Orai1 with glutathione beads (EE-Orai1-His8): co-precipitated Orai1

Substance: STIM1 C437G: STIM1 C437G mutant
- Ca2+ entry (SOCE) after store depletion (Orai1 [2]): only marginally activated SOCE
- puncta formation with Orai1 after store depletion (Orai1 [3]): formed pronounced puncta with Orai1

Substance: STIM1-DK: STIM1 lacking the polybasic C-terminal domain (aa 672-685)
- ICRAC after store depletion (Orai1 [4]; HEK 293 cells coexpressing STIM1 variant and Orai1): activated ICRAC
- puncta formation after store depletion (Orai1 [5]): failed to form puncta
- puncta formation with Orai1 after store depletion (Orai1 [3]): colocalized in puncta

Substance: STIM11-440: STIM1 1-448 with the final 8 aa deleted
- Ca2+ entry (SOCE) after store depletion (Orai1 [2]): failed to activate SOCE
- puncta formation with Orai1 after store depletion (Orai1 [3]): retained the ability to form puncta and cluster Orai1

Substance: STIM11-448: STIM1 truncated from the C-terminus to the end of the CAD
- Ca2+ entry (SOCE) after store depletion (Orai1 [2]): activated Ca^2+ entry
- puncta formation with Orai1 after store depletion (Orai1 [3]): formed puncta with Orai1

Substance: YFP-CAD: YFP-tagged CAD expressed in HEK 293 cells
- constitutive ICRAC (Orai1 [4]; HEK 293 cells cotransfected with construct and myc-Orai1, from break-in): constitutively active
- localization on coexpression of Orai1 (Orai1 [6]): dramatic recruitment of YFP-CAD to the plasma membrane
